The supplement of paper PMC7877785
± gives the uncertainty stated by the source.

Assay: self-splicing fitness, log relative to wild type (ln ratio); higher = more splicing; Tetrahymena group I intron in knt gene, E. coli kanamycin selection, DiMSum; sequences stand for … in CUCUCU…GGAGGGAAAAGUUAUCAGGCAUGCACCUGGUAGCUAGUCUUUAAACCAAUAGAUUGCAUCGGUUUAAAAGGCAAGACCGUCAAAUUGCGGGAAAGGGGUCAACAGCCGUUCAGUACCAAGUCUCAGGGGAAACUUUGAGAUGGCCUUGCAAAGGGUAUGGUAAUAAGCUGACGGACAUGGUCCUAACCACGCAGCCAAGUCCUAAGUCAACAGAUCUUCUGUUGAUAUGGAUGCAGUUCACAGACUAAAUGUCGGUCGGGGAAGAUGUAUUCUUCUCAUAAGAUAUAGUCGGACCUCUCCUUAAUGGGAGCUAGCGGAUGAAGUGAUGCAACACUGGAGCCGCUGGGAACUAAUUUGUAUGCGAAAGUAUAUUGAUUAGUUUUGGAGUACUCGUGGUCG
In short: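 DiMSum derived fitness as the error-weighted combination of fold changes across replicates, kanamycin versus no kanamycin, normalised to wild type. E. coli BL21(DE3) held the library, which randomised all eight P1ex-region intron nucleotides within the knt kanamycin-resistance gene on pET-22b(+). Six replicate transformations grew overnight at 37°C or 30°C on LB agar with or without 25 μg/mL kanamycin, also containing 100 μg/mL carbenicillin, 50 μM IPTG and 0.2% rhamnose, and pooled colonies were amplicon-sequenced on an Illumina HiSeq 2500.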

Sequence	self-splicing fitness (ln) (30 °C)	self-splicing fitness (ln) (37 °C)
CAUCAGCAAUAUUACGAGUC	-4.85 ± 0.34	-1.6 ± 0.21
CAUCAGCAAUAUUACGAUAU	-1.76 ± 0.073	-0.599 ± 0.085
CAUCAGCAAUAUUACGAUGA	-2.62 ± 0.24	-0.687 ± 0.15
CAUCAGCAAUAUUACGAUUA	-0.634 ± 0.091	-0.682 ± 0.085
CAUCAGCAAUAUUACGCAAG	-0.655 ± 0.065	-0.304 ± 0.065
CAUCAGCAAUAUUACGCCCA	-2.9 ± 0.23	-2.1 ± 0.21
CAUCAGCAAUAUUACGCGUC	-2.58 ± 0.089	-0.783 ± 0.086
CAUCAGCAAUAUUACGGGCA	-2.51 ± 0.12	-1.83 ± 0.14
CAUCAGCAAUAUUACGGGCC	-3.02 ± 0.45	-2.29 ± 0.47
CAUCAGCAAUAUUACGGGCU	-4.04 ± 0.31	-2.48 ± 0.2
CAUCAGCAAUAUUACGUACG	0.0534 ± 0.077	-0.0455 ± 0.097
CAUCAGCAAUAUUACGUAGU	-1.66 ± 0.04	-0.682 ± 0.06
CAUCAGCAAUAUUACGUAUU	-2.15 ± 0.097	-1.65 ± 0.11
CAUCAGCAAUAUUACGUCAG	-0.52 ± 0.062	0.43 ± 0.092
CAUCAGCAAUAUUACGUCCC	-2.53 ± 0.31	-1.39 ± 0.27
CAUCAGCAAUAUUACGUCCG	-0.619 ± 0.059	0.497 ± 0.088
CAUCAGCAAUAUUACGUGAU	-2.78 ± 0.078	-0.987 ± 0.086
CAUCAGCAAUAUUACGUGGG	-1.9 ± 0.075	-1.71 ± 0.1
CAUCAGCAAUAUUACGUUAA	-2.79 ± 0.16	-1.85 ± 0.17
CAUCAGCAAUAUUACGUUUA	-1.36 ± 0.086	-1.36 ± 0.094
CAUGAGCAAUAUUACGAAGA	–	-2.3 ± 0.26
CAUGAGCAAUAUUACGAGAA	-0.549 ± 0.29	–
CAUGAGCAAUAUUACGAGAG	-3.22 ± 0.16	-3.27 ± 0.23
CAUGAGCAAUAUUACGAUAA	-3.72 ± 0.35	-1.97 ± 0.3
CAUGAGCAAUAUUACGAUUU	-2.51 ± 0.15	-2.15 ± 0.2

Sequence	self-splicing fitness (ln) (30 °C)	self-splicing fitness (ln) (37 °C)
CAUGAGCAAUAUUACGCCGG	-3.79 ± 0.22	-2.14 ± 0.26
CAUGAGCAAUAUUACGCGCU	-3.58 ± 0.42	-2.21 ± 0.4
CAUGAGCAAUAUUACGCUCA	-3.35 ± 0.17	-2.18 ± 0.18
CAUGAGCAAUAUUACGCUCU	-3.71 ± 0.49	-2.82 ± 0.31
CAUGAGCAAUAUUACGGAGU	-4.1 ± 0.4	-3.1 ± 0.31
CAUGAGCAAUAUUACGGCUA	-2.75 ± 0.45	-1.87 ± 0.2
CAUGAGCAAUAUUACGGGUC	-2.75 ± 0.25	-2.75 ± 0.27
CAUGAGCAAUAUUACGGUAU	-4 ± 0.39	-3.54 ± 0.33
CAUGAGCAAUAUUACGGUGA	-1.91 ± 0.35	-2.8 ± 0.44
CAUGAGCAAUAUUACGGUUU	-3.52 ± 0.2	-3.01 ± 0.24
CAUGAGCAAUAUUACGUAAA	-3.16 ± 0.15	-3.43 ± 0.32
CAUGAGCAAUAUUACGUAGU	-5.58 ± 0.41	-3.3 ± 0.19
CAUGAGCAAUAUUACGUAUG	-2.65 ± 0.21	-2.65 ± 0.22
CAUGAGCAAUAUUACGUCAC	-3.36 ± 0.36	–
CAUGAGCAAUAUUACGUCCG	-0.682 ± 0.079	-0.331 ± 0.1
CAUGAGCAAUAUUACGUCGU	-3.75 ± 0.18	-3.34 ± 0.19
CAUGAGCAAUAUUACGUGGA	-3.96 ± 0.47	-3 ± 0.38
CAUGAGCAAUAUUACGUGGU	-3.53 ± 0.18	-2.49 ± 0.16
CAUGAGCAAUAUUACGUUGC	-2.57 ± 0.091	-3.34 ± 0.2
CAUUAGCAAUAUUACGAAAU	-3.12 ± 0.29	-2.37 ± 0.28
CAUUAGCAAUAUUACGAAGA	-3.8 ± 0.43	-0.417 ± 0.23
CAUUAGCAAUAUUACGAUAG	-0.405 ± 0.094	-0.688 ± 0.11
CAUUAGCAAUAUUACGCGAC	-3.58 ± 0.48	–
CAUUAGCAAUAUUACGCUGC	-3.92 ± 0.28	-2.43 ± 0.24
CAUUAGCAAUAUUACGGAUC	-1.46 ± 0.12	-1.6 ± 0.16

Sequence	self-splicing fitness (ln) (30 °C)	self-splicing fitness (ln) (37 °C)
CAUUAGCAAUAUUACGGCCU	-3.52 ± 0.18	-2.21 ± 0.21
CAUUAGCAAUAUUACGGGAA	–	-2.59 ± 0.41
CAUUAGCAAUAUUACGGUAA	-2.31 ± 0.14	-2.26 ± 0.14
CAUUAGCAAUAUUACGGUUC	-3.48 ± 0.21	-2.55 ± 0.23
CAUUAGCAAUAUUACGUAAG	-0.138 ± 0.057	0.358 ± 0.074
CAUUAGCAAUAUUACGUCAC	–	-1.63 ± 0.44
CAUUAGCAAUAUUACGUCCU	-3.14 ± 0.18	-1.38 ± 0.15
CAUUAGCAAUAUUACGUGUC	–	-2.18 ± 0.24
CAUUAGCAAUAUUACGUUAA	-2.87 ± 0.22	-1.91 ± 0.2
CAUUAGCAAUAUUACGUUUU	-4 ± 0.24	-3.21 ± 0.24
CCAAAGCAAUAUUACGAAAA	-1.93 ± 0.17	-2.85 ± 0.32
CCAAAGCAAUAUUACGAAAU	-3.31 ± 0.19	-3.2 ± 0.28
CCAAAGCAAUAUUACGACCA	-3.08 ± 0.34	-1.78 ± 0.45
CCAAAGCAAUAUUACGACGU	-3.76 ± 0.22	-2.8 ± 0.21
CCAAAGCAAUAUUACGAGUG	-0.346 ± 0.039	-0.144 ± 0.058
CCAAAGCAAUAUUACGCCAC	-3.59 ± 0.3	-2.01 ± 0.47
CCAAAGCAAUAUUACGCCCU	-3.49 ± 0.42	-3.01 ± 0.27
CCAAAGCAAUAUUACGCCUA	-4.18 ± 0.33	-3.12 ± 0.35
CCAAAGCAAUAUUACGCGUU	-3.79 ± 0.12	-2.89 ± 0.16
CCAAAGCAAUAUUACGCUCG	-1.97 ± 0.11	-0.271 ± 0.12
CCAAAGCAAUAUUACGCUGG	-4.28 ± 0.23	-2.46 ± 0.17
CCAAAGCAAUAUUACGGAGC	-3.3 ± 0.15	-2.69 ± 0.19
CCAAAGCAAUAUUACGGAUA	-2.87 ± 0.22	-2.17 ± 0.31
CCAAAGCAAUAUUACGGCCG	-0.467 ± 0.1	-0.508 ± 0.12
CCAAAGCAAUAUUACGGGAA	-3.01 ± 0.18	-3.66 ± 0.3

Sequence	self-splicing fitness (ln) (30 °C)	self-splicing fitness (ln) (37 °C)
CCAAAGCAAUAUUACGGGGU	-3.24 ± 0.15	-3.43 ± 0.23
CCAAAGCAAUAUUACGGGUC	-4.39 ± 0.23	-3.1 ± 0.22
CCAAAGCAAUAUUACGUACG	-0.00591 ± 0.081	0.0861 ± 0.084
CCAAAGCAAUAUUACGUAGC	-3.81 ± 0.16	-2.48 ± 0.16
CCAAAGCAAUAUUACGUCCA	-2.8 ± 0.26	-2.19 ± 0.3
CCAAAGCAAUAUUACGUCCU	-4.59 ± 0.31	-2.33 ± 0.21
CCAAAGCAAUAUUACGUGAG	-0.357 ± 0.049	0.0847 ± 0.073
CCAAAGCAAUAUUACGUGCU	-4.12 ± 0.18	-2.88 ± 0.18
CCAAAGCAAUAUUACGUUCU	-3.78 ± 0.26	-2.3 ± 0.23
CCACAGCAAUAUUACGAAAC	-2.27 ± 0.29	-1.8 ± 0.34
CCACAGCAAUAUUACGAAAG	-1.55 ± 0.066	-0.182 ± 0.082
CCACAGCAAUAUUACGACGG	-3.63 ± 0.12	-1.63 ± 0.1
CCACAGCAAUAUUACGAGAU	-3.37 ± 0.14	-1.65 ± 0.14
CCACAGCAAUAUUACGAGCA	-3.6 ± 0.18	-2.89 ± 0.19
CCACAGCAAUAUUACGAUAG	-1.17 ± 0.065	0.206 ± 0.084
CCACAGCAAUAUUACGAUGC	-3.7 ± 0.17	-2.66 ± 0.21
CCACAGCAAUAUUACGAUGG	-4.02 ± 0.14	-2.5 ± 0.13
CCACAGCAAUAUUACGCAGC	-3.88 ± 0.22	-2.83 ± 0.25
CCACAGCAAUAUUACGCCAA	-2.96 ± 0.2	-2.1 ± 0.23
CCACAGCAAUAUUACGCCAC	-3.52 ± 0.27	-2.54 ± 0.27
CCACAGCAAUAUUACGCCGC	-3.12 ± 0.21	-3.49 ± 0.27
CCACAGCAAUAUUACGCGGC	-3.19 ± 0.24	-3.09 ± 0.35
